Amount bound to anti-Grx5 immunobeads relative to Ssc1 and Ka data for two substances are collected here from publication PMC3681689.

Bounds are passed on as bounds.

Test [1] deals with monothiol glutaredoxin 5 (Grx5) (S. cerevisiae) (UniProt Q02784). The test can be described thus: co-IP.
The target in test [2] is N-terminally His-tagged S. cerevisiae Grx5 (recombinant) (S. cerevisiae) (UniProt Q02784). The test can be described thus: MST.

With “Ssq1-glutathione S-transferase (GST) fusion protein (natural protein)”, the amount bound to anti-Grx5 immunobeads relative to Ssc1 in test [1] is > 4 fold. Take “recombinant His-tagged S. cerevisiae Ssq1 (natural protein)”: in test [2], the Ka came to 440000 M⁻¹.
